# From doi:10.1101/2024.06.04.597356
# Biological target: CspA (UniProt P0A9X9 1-70)
# Assay: molecular beacon unfolding
# CspA, sequence (P0A9X9 whole entry): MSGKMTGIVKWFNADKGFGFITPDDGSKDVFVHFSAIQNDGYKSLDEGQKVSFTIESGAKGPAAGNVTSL
binder,measurement,value
78-nt molecular beacon (structured_DNA) DNA: AGGGTTCTTTGTGGTGTTTTTATCTGTGCTTCCCTATGCACCGCCGACGACAGTCGCTAACCTCTCGCTAAGAACCCT,binding result,binds
